B1: OR4K15 (parent)
chain: GUUAACGGUCAUAGGCCAUGGAAACUAGGAGCACCAUUUCGCUGCCAGUGAAGAAAUGAACAAAGAAAAUCUGGGCCAGGCAGGCAUCAAAAGAAAUAGUCUUGCGCUCAACCAGAAAGUCUGUAAUCAUUUUAAGGGUA

Variants of: B1
Test: self-cleavage, relative activity (ratio to wild type); higher = more cleavage; in vitro, sequencing; the parent is a self-cleaving ribozyme

Row | Variant | self-cleavage
1 | A116G A134C | 0.7
2 | A116G A134G | 0.59
3 | U120A A126G | 1.64
4 | A116G U132C | 0.54
5 | A117U U133C | 1.23
6 | A117G U120C | 0.23
7 | A117G U124C | 0.69
8 | A110U A114U | 0.04
9 | A110U A114G | 0.49
10 | C109A U120C | 0.36
11 | C113A A114G | 0.01
12 | A110G A129U | 0.08
13 | A110G A129G | 0.11
14 | U122C A126U | 1.12
15 | A118G U120G | 0.59
16 | A118G U120A | 2.61
17 | U120A A140G | 1.13
18 | U120A A140U | 1.67
19 | A116U U133C | 0.21
20 | A110G G136A | 0.09
21 | A110U A135G | 1.63
22 | A110G U132A | 0.19
23 | A125U A126G | 1.04
24 | A125G A126G | 0.68

Row | Variant | self-cleavage
25 | A110U G137A | 1.55
26 | A118U U127C | 0.02
27 | A118G A126G | 0.83
28 | A125G A135U | 0.54
29 | A118G A125G | 0.1
30 | A118G A125U | 1.22
31 | C121U U127C | 1.46
32 | A110C A125G | 0.11
33 | U120A U130A | 0.54
34 | U122C C128A | 0.38
35 | A116C U131C | 0
36 | U122C U133A | 0.52
37 | U122C U133C | 2.05
38 | A110G A126G | 0.1
39 | C113A A140G | 0
40 | A111C A140G | 0.01
41 | U120A U132C | 1.37
42 | A110U A118G | 0.72
43 | A110U A118U | 0.75
44 | A110U U131C | 0.65
45 | A110U U122C | 0.92
46 | U122C U127C | 0.25
47 | A116C U127C | 0.03
48 | C113G U131C | 0

Row | Variant | self-cleavage
49 | A116C A117G | 0.04
50 | U124A U132C | 0.13
51 | A114U A116G | 0.01
52 | A118U A126G | 0.17
53 | A118U U139A | 0.6
54 | A110G A114G | 0.05
55 | A110G A114C | 0.01
56 | A110G A114U | 0.03
57 | A111U A129G | 0.19
58 | A117G A118U | 1.72
59 | A117G A118G | 0.59
60 | A117G U122C | 1.05
61 | U120A U133A | 1.81
62 | G115A A118G | 0.04
63 | A110C U132A | 0.25
64 | A117U U130C | 1.05
65 | A111G U139G | 0.02
66 | A111G U139C | 0.01
67 | U124A U127C | 0.65
68 | U122G A129U | 1.75
69 | A116G A140C | 0.63
70 | A111G A117U | 0
71 | A111G A117C | 0
72 | C109A A140G | 0.47

Row | Variant | self-cleavage
73 | A117U A118C | 0.51
74 | A117U A118G | 0.97
75 | G115A U120C | 0.03
76 | A110G U139C | 0.17
77 | A118U U131G | 0.62
78 | G123A A126G | 1.34
79 | A117U A125G | 0.99
80 | A111G A140G | 0
81 | A116U A129U | 0.29
82 | G119U | 1.82
83 | G119C | 1.04
84 | G119A | 2.29
85 | A116G A135G | 0.5
86 | A116G U122C | 0.4
87 | A114G A129G | 0.07
88 | A114G A129U | 0.13
89 | A116C | 0.13
90 | A116G | 0.47
91 | A116U | 0.23
92 | A114G U124C | 0.07
93 | A114G U124G | 0.21
94 | A111U U124C | 0.08
95 | A125G U127A | 1.11
96 | A125G U127C | 0.27

Row | Variant | self-cleavage
97 | G123A A135G | 2.16
98 | A110G A117U | 0.06
99 | A114G A118C | 0.11
100 | A114G A118U | 0.04
101 | C109G | 0.02
102 | C109A | 0.38
103 | C109U | 0.49
104 | A111G U122C | 0.01
105 | U120C U131C | 0.85
106 | A117U A135G | 0.7
107 | C112G U122A | 0.05
108 | A114C U124C | 0.03
109 | A114C U127C | 0
110 | A114U A118U | 0.02
111 | C112U A116G | 0
112 | A114G U132C | 0.24
113 | A114G U132A | 0.7
114 | A111C U132C | 0.01
115 | U120C A126U | 0.57
116 | A118U U120A | 1.68
117 | A126C U130C | 0.47
118 | A118G A134U | 1.03
119 | A114U A125G | 0
120 | A110U C113U | 0.02

Row | Variant | self-cleavage
121 | G119C U132C | 1.13
122 | U120G U130A | 1.2
123 | A125C A126G | 0.12
124 | U122C A134U | 1.75
125 | C112A A140G | 0.02
126 | A118G G137A | 0.86
127 | U122C G123A | 1.6
128 | A110G A116G | 0.06
129 | U120G U139A | 1.61
130 | A117G U130A | 0.26
131 | A117G U130C | 0.39
132 | C109U U120C | 0.15
133 | A110U U124A | 0.9
134 | A110C U122G | 0.56
135 | A111G G138U | 0.01
136 | U124C A126G | 0.48
137 | A116C U130C | 0.06
138 | A110C A117G | 0.64
139 | A125G A129U | 0.01
140 | C112U U122A | 0.01
141 | C121A G137A | 1.87
142 | A117U U131G | 1.38
143 | A117U U131C | 1.01
144 | A110U U130C | 1.06

Row | Variant | self-cleavage
145 | A111G C112G | 0
146 | U120C A129G | 0.63
147 | U122C A140U | 1.13
148 | U122C A140G | 1.32
149 | A110U U120C | 0.08
150 | C112U A140U | 0.01
151 | A118C U130C | 0.93
152 | G119A A126G | 1.98
153 | A125U U131C | 2.47
154 | A117G U127A | 2.7
155 | A117G C128A | 1.07
156 | U124C U131C | 0.8
157 | A111U A114U | 0.02
158 | A111U A117G | 0.06
159 | A116U U120C | 0.15
160 | A111U U139A | 0.16
161 | A114C U122A | 0.04
162 | A114C U122G | 0.01
163 | U120A U127C | 1.67
164 | A116U U122C | 0.21
165 | A110C A114U | 0.01
166 | A114G A117G | 0.37
167 | A114G U131C | 0.15

— the RNAGym collection of RNA variant scans (doi:10.7554/elife.90254)
